Results on three substances are retold here after patent US20120121633A1, “HIV CD4 BINDING SITE BASED COVALENT IMMUNOGEN COMPOSITIONS” (priority 2010, published 2012).

Experiment [1] concerns the target gp120 on intact HIV virions (strain MN) (HIV strain MN) (UniProt P05877). The experiment can be described thus: MAb (7.5 µg/ml) with intact HIV virions, complexes captured on Protein G, p24 ELISA. Background: ELISA stands for enzyme-linked immunosorbent assay.
Experiment [2] has the same target. The experiment can be described thus: MAb (0.8 µg/ml) with intact HIV virions, complexes captured on Protein G, p24 ELISA.
Experiment [3] shares this target. The experiment can be described thus: MAb (45 µg/ml) with intact HIV virions, complexes captured on Protein G, p24 ELISA.

Consider MAb 2G12 (antibody), for which the A490 (MAb binding of HIV in the absence of competitors) in experiment [1] amounted to 0.246 A490.

In experiment [2], MAb 447-52D (antibody) showed an A490 (MAb binding of HIV in the absence of competitors) of 0.291 A490.

In experiment [3], MAb clone b12 (antibody) had an A490 (MAb binding of HIV in the absence of competitors) of 0.176 A490.
